Experimental findings from doi:10.1101/2024.12.23.630133 (bioRxiv, 2024) are described below.

For orientation: stoichiometry N means a count of units in the complex or per binding partner.

This data set deals with the molecule itself. Nature of the data set: single-molecule GFP photobleaching.

B1: HCN1SM (GFP-tagged human HCN1 channel) (natural protein)
chain: MEGGGKPNSSSNSRDDGNSVFPAKASATGAGPAAAEKRLGTPPGGGGAGAKEHGNSVCFKVDGGGGGGGGGGGGEEPAGGFEDAEGPRRQYGFMQRQFTSMLQPGVNKFSLRMFGSQKAVEKEQERVKTAGFWIIHPYSDFRFYWDLIMLIMMVGNLVIIPVGITFFTEQTTTPWIIFNVASDTVFLLDLIMNFRTGTVNEDSSEIILDPKVIKMNYLKSWFVVDFISSIPVDYIFLIVEKGMDSEVYKTARALRIVRFTKILSLLRLLRLSRLIRYIHQWEEIFHMTYDLASAVVRIFNLIGMMLLLCHWDGCLQFLVPLLQDFPPDCWVSLNEMVNDSWGKQYSYALFKAMSHMLCIGYGAQAPVSMSDLWITMLSMIVGATCYAMFVGHATALIQSLDSSRRQYQEKYKQVEQYMSFHKLPADMRQKIHDYYEHRYQGKIFDEENILNELNDPLREEIVNFNCRKLVATMPLFANADPNFVTAMLSKLRFEVFQPGDYIIREGAVGKKMYFIQHGVAGVITKSSKEMKLTDGSYFGEICLLTKGRRTASVRADTYCRLYSLSVDNFNEVLEEYPMMRRAFETVAIDRLDRIGKKNSILLQKFQKDLNTGVFNNQENEILKQIVKHDREMVQAIAPINYPQMTTLNSTSSTTTPTSRMRTQSPPVYTATSLSHSNLHSPSPSTQTPQPSAILSPCSYTTAVCSPPVQSPLAARTFHYASPTASQLSLMQQQPQQQVQQSQPPQTQPQQPSPQPQTPGSSTPKNEVHKSTQALHNTNLTREVRPLSASQPSLPHEVSTLISRPHPTVGESLASIPQPVTAVPGTGLQAGGRSTVPQRVTLFRQMSSGAIPPNRGVPPAPPPPAAALPRESSSVLNTDPDAEKPRFASNL
On to B1, for which the “stoichiometry N” value stood at 4.
